Source: the DeepSol protein solubility set

Test: soluble on expression in E. coli; label from the status in PepcDB or PDB records

Sequence | soluble on expression in E. coli
MGSRCVAAANCPFGKLPGQSCVRKSDPSLAFNIPSNQDNCPMGQVCITAGESQVGHCCPVICPLNTTTDTRYSCDPDAAPALKCPSDSHYCYFLSGNFNKIQNFICNANSDGSFSQAACCRRPCNAMAPNALYVDYHCMPRGQLNSACTSNAQCGGGEGMECMKGQCQCQQNFHPAVDVLTNPLKNPSQSCSRDCESENLSKDTSCMKAVPLNSLCFIQKQCPQNSGCYRGRCMCRCGFAAKNGKCVEIPAPPTTTSAPAPAIIPGVPINPGNDLFKLFGQFLGAGNGGGGLNFG | not soluble
MGSDKIHHHHHHMSNDIDLIKRLGPSAMDQIMLYLAFSAMRTSGHRHGAFLDAAATAAKCAIYMTYLEQGQNLRMTGHLHHLEPKRVKIIVEEVRQALMEGKLLKTLGSQEPRYLIQFPYVWMEQYPWIPGRSRIPGTSLTSEEKRQIEHKLPSNLPDAQLVTSFEFLELIEFLHKRSQEDLPPEHRMELSEALAEHIKRRLLYSGTVTRIDSPWGMPFYALTRPFYAPADDQERTYIMVEDTARYFRMMKDWAEKRPNAMRALEELDVPPERWDEAMQELDEIIRTWADKYHQVGGIPMILQMVFGRKED | not soluble
GPGSMPAPSLATRHFTFTHEVPADDVFELEENAPRRVPIACVTLQMVSFNRRCFWFHIAMTREGFSAPPPPFGACAVSFSGVSGDSAATTLVDDTALPQLGFKEAQHEVGVGAPNPQAVFADSLARRLSRRLEREFTSGVAVYVACGIIGENQSDLLGTPAGYGSEVTRRFGAEVFKHAMDLICEEGLGKATAA | not soluble
MGSDKIHHHHHHMDIRQLTYFIAVAEAKNYSRAAKSLFVTQPTLSQSIKKLEAELNTILFLQNGRQLALTEAGEILYEKGQLLMTNVNQMVTEIQQLNQEKKEGIRVGLTSLFAIQFMKQISTFMATHSNVEVSLIQDGSRKLQELLAKGKIDIGLLSFPSTRNDITIEPLQTSTKGYKVSIVMPKSHPLATLPEIELNDLRDYKVASLNEHYMLGEMLPRKCRALGFDPHIVFKHNDWEVLIHSLQDLNAVTILPSEFESISQVQDLCWVPLKDKNNFYPIGIAYRNDTSFSPMIEEFLSLLKTN | not soluble
MEFYMKAFNKLFSLVVASVLVFSLAGCGDKEESKKFSANLNGTEIAITYVYKGDKVLKQSSETKIQFASIGATTKEDAAKTLEPLSAKYKNIAGVEEKLTYTDTYAQENVTIDMEKVDFKALQGISGINVSAEDAKKGITMAQMELVMKAAGFKEVK | not soluble
MDTLRYLTGYPPAVLEQVRALIAQDKLGAVLAQRYPERHTVRTDRQLYDYVKEMKERYMRSSPTLHKAIYDNHLQVVKHALGTHTAISRVHGSRLKASREIRIAAIFRDAPAPFLQMIVAHELAHLKEPEHDKAFYQLCHHMAPDYHQLEFDLRLYLTQLALSPRDLEHHHHHH | soluble
MNNILSEEVLNVTDFTTSRQLTLWKREDLQSPQLDDVAEEVPVALVYNGISHVVMMASPKDLTHFAMGFSLSEGIIDSPREIYGMDVVPSCNGLEVQIDLSSRRFMGLKARRRALAGRTGCGVCGVEQLNDIGKPVQPLPFSQTFNLGNLDRALKHLNDFQPTGKLTGCTHAAAWVMPSGELAGGHEDVGRHVALDKLLGRRATEGEEWRQGAALVSSRASYEMVQKSAMCGVEILFAVSAATTLAVEVAERCNLTLVGFCKPGRATIYTHPQRLIADLEHHHHHH | not soluble
MGSDKIHHHHHHMIFELPDTTTQQISKTLTRLRESGTQVTTGRVLTLIVVTDSESDVAAVTESTNEASREHPSRVIILVVGDKTAENKVDAEVRIGGDAGASEMIIMHLNGPVADKLQYVVTPLLLPDTPIVAWWPGESPKNPSQDPIGRIAQRRITDALYDRDDALEDRVENYHPGDTDMTWARLTQWRGLVASSLDHPPHSEITSVRLTGASGSTSVDLAAGWLARRLKVPVIREVTDAPTVPTDEFGTPLLAIQRLEIVRTTGSIIITIYDAHTLQVEMPESGNAPSLVAIGRRSESDCLSEELRHMDPDLGYQHALSGLSSVKLETV | not soluble
MSFSRRPKVTKSDIVDQIALNIKNNNLKLEKKYIRLVIDAFFEELKSNLCSNNVIEFRSFGTFEVRKRKGRLNARNPQTGEYVKVLDHHVAYFRPGKDLKERVWGIKG | soluble
MSRVVLNVDSYEGNDTPSAEIARFVVLYGKASTRKHKIWEGDGLLVCFTDSCLLKSEDERDVICRSSALKGLDQLEDGRIINIGSWSVEIQERIATGPPQKPISAQKPEIQSPMPPMTPGNSENVENRKRGGFSSPFLGIELPKPLSKRSATFVPPLIGSESSSSGGSSSSTIQEKIPPFILNEQDILDRKTTSAVTVDTRFARHLRPHQKSGIQFIFDRLRRGSGKNGGGGGAILADDMGLGKSLQTMAATWALLKGSKTAQQLANSCLIIVPSSLVNNWKAEFDKWWRLMRFPAVIALTANDITTYQSTIKLMPYLVISYDLAQRHVEKLKIIRFDVMVCDEGHKLKNLDGKLRKTLLSLEIPRRLILTGTPMQNDFEEFYSLLDFVRPSVFGSIVEFRKMCSDRPEQLNELIDECMLRRTAADVDLKHLPEKHEYILFCAASPIQKHVHSEICDYMTGDALSLIFFARQLANHPKLLLDNLREKTEKSKAHKHSPLLLAFDGAHMPRGGVKESGKLTALVDMIKCFRLLQECTVIVSNYIETLDMIQQLCEYLNFKVLRLDGKTQVPDRQKLVRTFNDHRDPSNIFLLSTKAGGVGLNLIGASRLVLFDSDWNPANDQQAMARIWRDGQVRPCHIYRLITTGTIEEKMLQRQIKKTGLGCVIDAIEVGDTIATFTDEDLKDIFTFTGSATECNTHDLCECPCDGCGMLENEMDEEDDGDDVVENDAEKIDKSGKIDKIDSDDDEEADDEELEADVTDEVVEDSQEPPEATKPAVAAAGLRTIASLAELSRWRHFSPRHADTWHHFMTNAGLSQVDTDVELTFAFYQESQY | not soluble
MLSAFFKTAHCALRNMPIQTDLVGKWNFVSSENFDEYLKEVGVGWAIRTIATKTKPALEFAVNGDEWTMNSNSTFKNYTLKWKLGTASDEKTADGRDVSSVFSIENDHLVQIETGKGGGKDSRIERYIENGKLVIVCTCNGVKCTRVYEKAA | not soluble
SNAMSELSYRRILLKLSGEALMGDGDYGIDPKVINRLAHEVIEAQQAGAQVALVIGGGNIFRGAGLAASGMDRVTGDHMGMLATVINALAMQDALEKLGAKVRVMSAIKINDVCEDFIRRRAIRHLEKGRIAIFAAGTGNPFFTTDSGAALRAIEIGADLLLKATKVDGVYDKDPKKHSDAVRYDSLTYDEVIMQGLEVMDTAAFALARDSDLPLRIFGMSEPGVLLRILHGAQIGTLVQGRS | soluble
MSGAAKRVATSSVNWSKLAERLVPEHAAELTRVKGVSGTFQSAVSQLPADLPKIDFAALKKALPAHSAVLDSLQKQYESVKIPYGEVPAEYLKEVDQWVDYNNARIKLHEVKVADGLQEAKKVEEKWAKAPPVEHFDRQHFVEYFPAHFYDLRYQNRIPDPCNIGLNETPEIENRFKDYKVLRRADKVDDH | not soluble
MLPLSSVELTDIKTDDLDIKWDNVQQFKLGDGSYADVFHVFYKGHDAVLKRSIKEYTDKERENIRREARVVAALNNCENVVRIYGICETLPFRGMIMEYCAGPNLSELVFQLDECKVKFETLRIFKWCHDLTRTLCELNVTYYHGDVKAKNVLVKERPCCCVEGIYENVKIRNTTYSLCTICNGVHLEHLSLKICDFGMSYEHKDKRLYNGGTREFSAPETIRGIYTEKSEVYSFGHLMLVLVIGGPTEDDCAVGQRAFLKMYNNKKYDMSGCKSNSICETIEWCLNNTQESRPTFKQLLSKLNSRHTHYLSLRGTDTRRLEANNEREEFLDHYRIPRKISVHRRTTTTSTCISLSETSGSNQDISVTSAAYLGGPIVNQMFIADTPLASPSASRKFRNDGFEKTNYVENQLYTGDETRKPFLTGGISHPGYSVMRKNSVWKFFVQARNSIRSKITKLVRKRK | not soluble
MAKIGLFFGSDTGTTRKIAKQIKDMFDDEVMAKPLNVNRADVADFMAYDFLILGTPTLGDGQLPGLSANAASESWEEFLPRIADQDFSGKTIALFGLGDQVTYPLEFVNALFFLHEFFSDRGANVVGRWPAKGYGFEDSLAVVEGEFLGLALDQDNQAALTPERLKGWLSLIAADFGLVLPA | soluble
